According to publication PMC9002759, “The Sunflower WRINKLED1 Transcription Factor Regulates Fatty Acid Biosynthesis Genes through an AW Box Binding Sequence with a Particular Base Bias”:

Molecular target: HaWRI1_DBD (6-His-TRX-WRI1_DBD) (Helianthus annuus (CAS-6 line), UniProt X2BZR1 51-229)
Assay: EMSA; polydIdC; 20 mM Tris-HCl pH 8.0, 250 mM NaCl, 2 mM MgCl2, 1% glycerol, 1 mM DTT, 1 mg/mL BSA, 30 min room temperature, gels at 4 °C; DIG EMSA plus 0.05 µg/µL polydIdC
Conditions: protein: recombinant; tags: N-terminal 6xHis-thioredoxin fusion; label: digoxigenin; blunt

HaWRI1_DBD (6-His-TRX-WRI1_DBD), sequence (X2BZR1 entry or part of it): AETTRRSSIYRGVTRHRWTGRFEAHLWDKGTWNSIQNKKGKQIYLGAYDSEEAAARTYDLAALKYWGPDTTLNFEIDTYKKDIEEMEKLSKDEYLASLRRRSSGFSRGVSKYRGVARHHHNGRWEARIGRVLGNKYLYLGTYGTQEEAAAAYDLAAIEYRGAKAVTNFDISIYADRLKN

B1: FATA1 AW box 24 bp (dsDNA)
DNA 1: CAGTCCTCGTGCATATCGGAGTCT
DNA 2: AGACTCCGATATGCACGAGGACTG
B1: binds.
